This note sets out measurements from patent publication US6555322 (FIBROGEN, dated 2003).

Bounds are passed on as bounds.

For assay [1], the target named is T1, murine low density lipoprotein receptor-related protein (LRP) / α2-macroglobulin receptor, CTGF receptor on … (murine, UniProt Q91ZX7 20-4545).
T1 construct: whole, on cells; they are fragments found by mass spectrometry, not the construct; In the cell the protein is cleaved into non-covalently joined α and β subunits (background statement); also called α2MR; LRP/α2MR
Put plainly: competition with 0.1 nM 125I-CTGF on BMS-2 cells.

Assay [2] deals with human low density lipoprotein receptor-related protein (LRP) / α2-macroglobulin receptor, CTGF receptor on … (human, UniProt Q07954 20-4544). Put plainly: cell-based or functional assay.
Assay [3] addresses T2, CTGF receptor (LRP), cells not named.
T2 construct: whole, on cells; 'other cells examined'); also called cross-linked complex; 620 kDa protein
Put plainly: equilibrium binding of 125I-rhCTGF to other cells with a single class of sites.

Assay [4] addresses T1, murine low density lipoprotein …. Put plainly: equilibrium binding of 125I-rhCTGF to cells (FIG. 2, BMS2), non-linear regression; low affinity site.
For assay [5], the target named is high affinity binding site for CTGF on cells. Put plainly: equilibrium binding of 125I-rhCTGF to cells (FIG. 2, BMS2), non-linear regression; high affinity site.
The target in assay [6] is T2, CTGF receptor (LRP), cells not named. Put plainly: 200 pM iodinated CTGF with 0-6.5 nM unlabeled CTGF on cells, S-SMCC cross-linking, densitometry of the complex bands.

T1 sequence (Q91ZX7 20-4545): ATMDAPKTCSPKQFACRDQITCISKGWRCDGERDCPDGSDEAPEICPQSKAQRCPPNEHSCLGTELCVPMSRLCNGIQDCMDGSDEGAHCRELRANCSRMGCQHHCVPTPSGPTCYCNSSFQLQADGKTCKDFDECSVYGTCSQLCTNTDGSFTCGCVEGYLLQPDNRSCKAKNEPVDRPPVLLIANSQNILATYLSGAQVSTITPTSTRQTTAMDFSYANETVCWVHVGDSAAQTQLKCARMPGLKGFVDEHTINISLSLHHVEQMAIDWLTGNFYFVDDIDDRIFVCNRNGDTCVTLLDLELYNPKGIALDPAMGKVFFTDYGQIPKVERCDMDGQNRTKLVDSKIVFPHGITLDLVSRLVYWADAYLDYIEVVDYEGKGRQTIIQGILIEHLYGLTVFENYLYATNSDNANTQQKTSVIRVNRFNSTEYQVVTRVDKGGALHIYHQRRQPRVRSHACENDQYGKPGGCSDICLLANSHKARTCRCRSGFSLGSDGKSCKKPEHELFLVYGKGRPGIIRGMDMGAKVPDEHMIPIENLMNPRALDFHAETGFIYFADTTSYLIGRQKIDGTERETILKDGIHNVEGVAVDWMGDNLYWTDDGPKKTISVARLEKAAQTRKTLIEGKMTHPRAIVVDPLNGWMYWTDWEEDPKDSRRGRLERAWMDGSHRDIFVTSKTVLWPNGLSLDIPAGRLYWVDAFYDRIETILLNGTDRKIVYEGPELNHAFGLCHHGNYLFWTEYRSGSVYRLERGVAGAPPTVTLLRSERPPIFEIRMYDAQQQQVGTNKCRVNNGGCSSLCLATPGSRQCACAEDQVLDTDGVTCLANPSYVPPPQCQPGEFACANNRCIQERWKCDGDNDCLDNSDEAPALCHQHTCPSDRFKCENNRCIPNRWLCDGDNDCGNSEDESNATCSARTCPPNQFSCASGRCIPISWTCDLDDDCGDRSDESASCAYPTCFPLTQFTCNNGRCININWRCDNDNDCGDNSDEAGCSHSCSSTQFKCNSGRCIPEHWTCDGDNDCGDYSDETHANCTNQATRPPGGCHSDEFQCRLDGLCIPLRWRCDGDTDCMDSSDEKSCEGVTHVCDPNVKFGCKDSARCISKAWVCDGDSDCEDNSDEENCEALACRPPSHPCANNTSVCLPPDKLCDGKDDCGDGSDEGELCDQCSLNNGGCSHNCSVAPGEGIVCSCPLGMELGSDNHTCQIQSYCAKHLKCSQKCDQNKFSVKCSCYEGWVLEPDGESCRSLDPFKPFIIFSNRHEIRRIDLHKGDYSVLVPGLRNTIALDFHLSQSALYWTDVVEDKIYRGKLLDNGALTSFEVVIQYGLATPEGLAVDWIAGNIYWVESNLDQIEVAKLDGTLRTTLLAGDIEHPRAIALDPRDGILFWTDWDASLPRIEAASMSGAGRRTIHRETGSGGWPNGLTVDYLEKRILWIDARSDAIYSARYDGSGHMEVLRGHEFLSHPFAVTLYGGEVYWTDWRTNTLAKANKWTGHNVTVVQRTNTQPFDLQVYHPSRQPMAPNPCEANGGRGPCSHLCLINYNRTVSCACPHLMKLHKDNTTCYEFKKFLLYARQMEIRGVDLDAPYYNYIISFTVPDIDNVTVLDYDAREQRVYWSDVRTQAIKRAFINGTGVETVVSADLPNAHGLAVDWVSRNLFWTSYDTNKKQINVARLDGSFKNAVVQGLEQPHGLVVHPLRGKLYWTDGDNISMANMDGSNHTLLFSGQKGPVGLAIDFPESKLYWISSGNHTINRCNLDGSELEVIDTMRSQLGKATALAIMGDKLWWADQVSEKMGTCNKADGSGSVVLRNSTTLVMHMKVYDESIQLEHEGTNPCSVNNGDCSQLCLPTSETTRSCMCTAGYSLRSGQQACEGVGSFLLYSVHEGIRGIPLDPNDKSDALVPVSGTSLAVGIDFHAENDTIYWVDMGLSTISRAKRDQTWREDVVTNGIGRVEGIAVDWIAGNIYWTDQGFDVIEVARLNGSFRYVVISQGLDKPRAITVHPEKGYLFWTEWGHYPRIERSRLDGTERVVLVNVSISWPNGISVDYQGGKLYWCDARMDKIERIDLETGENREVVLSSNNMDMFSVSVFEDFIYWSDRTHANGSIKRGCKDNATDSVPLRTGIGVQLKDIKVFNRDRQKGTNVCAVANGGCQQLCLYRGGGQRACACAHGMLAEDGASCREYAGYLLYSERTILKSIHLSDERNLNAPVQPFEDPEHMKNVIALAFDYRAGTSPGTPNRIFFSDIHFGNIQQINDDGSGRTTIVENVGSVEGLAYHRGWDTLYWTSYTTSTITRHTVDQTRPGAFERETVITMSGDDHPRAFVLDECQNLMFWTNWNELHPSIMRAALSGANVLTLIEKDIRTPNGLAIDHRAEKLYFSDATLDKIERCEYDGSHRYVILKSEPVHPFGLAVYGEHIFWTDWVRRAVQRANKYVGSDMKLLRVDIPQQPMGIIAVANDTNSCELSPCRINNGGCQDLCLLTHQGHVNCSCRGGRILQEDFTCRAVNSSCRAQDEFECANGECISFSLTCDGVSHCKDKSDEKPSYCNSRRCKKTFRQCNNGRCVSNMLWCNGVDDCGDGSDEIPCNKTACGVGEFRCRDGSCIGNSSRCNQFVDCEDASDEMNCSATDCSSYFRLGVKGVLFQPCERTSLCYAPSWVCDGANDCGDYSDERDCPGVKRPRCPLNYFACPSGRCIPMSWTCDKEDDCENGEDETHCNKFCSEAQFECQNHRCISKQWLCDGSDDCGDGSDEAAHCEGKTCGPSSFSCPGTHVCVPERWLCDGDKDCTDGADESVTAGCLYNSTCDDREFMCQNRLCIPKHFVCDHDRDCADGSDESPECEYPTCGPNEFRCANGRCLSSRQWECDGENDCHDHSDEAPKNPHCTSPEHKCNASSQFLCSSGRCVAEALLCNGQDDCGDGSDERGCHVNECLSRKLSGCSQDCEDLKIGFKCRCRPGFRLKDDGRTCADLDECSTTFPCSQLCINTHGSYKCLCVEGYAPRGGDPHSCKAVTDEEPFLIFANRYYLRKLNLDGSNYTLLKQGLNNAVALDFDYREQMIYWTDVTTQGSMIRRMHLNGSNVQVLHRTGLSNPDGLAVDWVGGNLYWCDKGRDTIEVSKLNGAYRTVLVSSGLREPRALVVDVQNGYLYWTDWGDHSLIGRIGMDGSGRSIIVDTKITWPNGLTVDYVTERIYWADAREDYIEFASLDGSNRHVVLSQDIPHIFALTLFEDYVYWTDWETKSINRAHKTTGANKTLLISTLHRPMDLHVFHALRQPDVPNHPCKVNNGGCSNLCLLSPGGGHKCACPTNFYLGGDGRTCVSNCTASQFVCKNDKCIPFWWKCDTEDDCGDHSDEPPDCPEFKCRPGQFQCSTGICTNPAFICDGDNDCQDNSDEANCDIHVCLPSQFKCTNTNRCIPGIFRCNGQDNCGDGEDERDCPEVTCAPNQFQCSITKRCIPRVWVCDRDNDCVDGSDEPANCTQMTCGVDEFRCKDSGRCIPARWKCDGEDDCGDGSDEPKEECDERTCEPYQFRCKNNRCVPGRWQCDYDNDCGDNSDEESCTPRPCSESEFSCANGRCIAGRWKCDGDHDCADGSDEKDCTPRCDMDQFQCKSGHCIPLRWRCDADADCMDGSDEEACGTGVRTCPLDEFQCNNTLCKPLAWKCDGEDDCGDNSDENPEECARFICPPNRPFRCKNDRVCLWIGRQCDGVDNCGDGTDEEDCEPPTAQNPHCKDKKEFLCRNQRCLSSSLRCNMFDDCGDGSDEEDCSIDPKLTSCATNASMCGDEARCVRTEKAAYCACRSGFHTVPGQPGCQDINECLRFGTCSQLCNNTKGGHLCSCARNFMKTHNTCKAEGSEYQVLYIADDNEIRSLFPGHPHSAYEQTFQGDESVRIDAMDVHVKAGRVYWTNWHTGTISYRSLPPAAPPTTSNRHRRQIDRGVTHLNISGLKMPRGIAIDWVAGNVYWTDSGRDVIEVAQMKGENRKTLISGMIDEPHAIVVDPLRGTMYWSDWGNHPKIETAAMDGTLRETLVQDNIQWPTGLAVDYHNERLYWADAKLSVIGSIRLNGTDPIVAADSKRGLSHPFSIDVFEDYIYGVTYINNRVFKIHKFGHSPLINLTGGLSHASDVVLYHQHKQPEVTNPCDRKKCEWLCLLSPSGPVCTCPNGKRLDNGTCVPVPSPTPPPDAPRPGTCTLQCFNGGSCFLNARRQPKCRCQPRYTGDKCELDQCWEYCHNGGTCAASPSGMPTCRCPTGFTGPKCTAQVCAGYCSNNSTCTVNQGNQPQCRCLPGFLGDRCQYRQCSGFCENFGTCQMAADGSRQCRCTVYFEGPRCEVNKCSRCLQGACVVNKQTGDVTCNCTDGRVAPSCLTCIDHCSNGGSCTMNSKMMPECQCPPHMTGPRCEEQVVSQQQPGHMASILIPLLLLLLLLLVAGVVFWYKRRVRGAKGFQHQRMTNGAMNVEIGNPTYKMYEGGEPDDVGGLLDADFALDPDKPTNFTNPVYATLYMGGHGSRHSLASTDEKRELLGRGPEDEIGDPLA

B1: lipoprotein lipase purified from bovine milk (enzyme, UniProt P11151 29-478, looked up)
chain: DRITGGKDFRDIESKFALRTPEDTAEDTCHLIPGVTESVANCHFNHSSKTFVVIHGWTVTGMYESWVPKLVAALYKREPDSNVIVVDWLSRAQQHYPVSAGYTKLVGQDVAKFMNWMADEFNYPLGNVHLLGYSLGAHAAGIAGSLTNKKVNRITGLDPAGPNFEYAEAPSRLSPDDADFVDVLHTFTRGSPGRSIGIQKPVGHVDIYPNGGTFQPGCNIGEALRVIAERGLGDVDQLVKCSHERSVHLFIDSLLNEENPSKAYRCNSKEAFEKGLCLSCRKNRCNNMGYEINKVRAKRSSKMYLKTRSQMPYKVFHYQVKIHFSGTESNTYTNQAFEISLYGTVAESENIPFTLPEVSTNKTYSFLLYTEVDIGELLMLKLKWISDSYFSWSNWWSSPGFDIGKIRVKAGETQKKVIFCSREKMSYLQKGKSPVIFVKCHDKSLNRKSG
notes: also called LpL
With B1, the binding result in assay [1] is reported as “binds”.

B2: recombinant human connective tissue growth factor (rhCTGF) (ligand, UniProt P29279 27-349, looked up)
chain: QNCSGPCRCPDEPAPRCPAGVSLVLDGCGCCRVCAKQLGELCTERDPCDPHKGLFCHFGSPANRKIGVCTAKDGAPCIFGGTVYRSGESFQSSCKYQCTCLDGAVGCMPLCSMDVRLPSPDCPFPRRVKLPGKCCEEWVCDEPKDQTVVGPALAAYRLEDTFGPDPTMIRANCLVQTTEWSACSKTCGMGISTRVTNDNASCRLEKQSRLCMVRPCEADLEENIKKGKKCIRTPKISKPIKFELSGCTSMKTYRAKFCGVCTDGRCCTPHRTTTLPVEFKCPDGEVMKKNMMFIKTCACHYNCPGDNDIFESLYYRKMYGDMA
modifications: radioiodinated (125I; Iodobeads or chloramine-T) when used as tracer; unlabeled when used as competitor
notes: mature; Form set to mature because the protein was secreted and purified from conditioned medium
As for B2, the “degradation of 125I-CTGF, control MG63 cells against cells treated with TGF-β for 48 hours” value in assay [2] was no less than 3 fold. For the same molecule, the results for the Kd in assay [3], in assay [4] and in assay [5] were roughly 1 nM, roughly 1 nM and roughly 0.137 nM, respectively. Also, the IC50 in assay [6] is roughly 1 nM.
